Assays:
[1] = biological target: T1, wild-type human Y1R (NPY1R-WT, hY1R) (Homo sapiens, UniProt P25929); assay: GloSensor cAMP inhibition assay in HEK293 cells; assay type: cell-based; conditions: wildtype Y1R, Figure 1B
T1 construct: Flag; expressed in transfected cells; host or cells: HEK293
T1 sequence (P25929 1-384): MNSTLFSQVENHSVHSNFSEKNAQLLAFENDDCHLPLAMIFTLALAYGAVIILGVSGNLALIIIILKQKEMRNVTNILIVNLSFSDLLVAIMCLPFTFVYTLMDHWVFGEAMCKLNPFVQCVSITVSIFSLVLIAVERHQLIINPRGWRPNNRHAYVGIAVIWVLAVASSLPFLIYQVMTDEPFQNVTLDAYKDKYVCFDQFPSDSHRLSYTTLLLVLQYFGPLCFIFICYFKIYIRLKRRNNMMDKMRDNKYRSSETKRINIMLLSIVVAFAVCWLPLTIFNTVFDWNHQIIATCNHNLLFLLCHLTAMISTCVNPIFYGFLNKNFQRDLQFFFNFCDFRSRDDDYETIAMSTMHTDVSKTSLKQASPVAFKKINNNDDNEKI
Method: Following a subsequent 1 -hour incubation, ligands, diluted in assay buffer with forskolin, were introduced to the cells. Subsequently, the cells wer e incubated for 30 minutes in a light-free environment at room temperature Fluorescence signals were measured using a Synergy H1 microplate reader (BioTek). GraphPad Prism 8 (GraphPad Software) was used to processing data using the nonlinear regression dos e-response function. Results were represented as the mean ± s.e.m. from three independent experiments . All experiments were repeated at least three times.

wildtype Y2R = biological target: T2, wildtype Y2R (Homo sapiens, UniProt P49146); assay: GloSensor cAMP inhibition assay in HEK293 cells; assay type: cell-based; conditions: Figure 1C
T2 construct: Flag; expressed in transfected cells; host or cells: HEK293
T2 sequence (P49146 1-381): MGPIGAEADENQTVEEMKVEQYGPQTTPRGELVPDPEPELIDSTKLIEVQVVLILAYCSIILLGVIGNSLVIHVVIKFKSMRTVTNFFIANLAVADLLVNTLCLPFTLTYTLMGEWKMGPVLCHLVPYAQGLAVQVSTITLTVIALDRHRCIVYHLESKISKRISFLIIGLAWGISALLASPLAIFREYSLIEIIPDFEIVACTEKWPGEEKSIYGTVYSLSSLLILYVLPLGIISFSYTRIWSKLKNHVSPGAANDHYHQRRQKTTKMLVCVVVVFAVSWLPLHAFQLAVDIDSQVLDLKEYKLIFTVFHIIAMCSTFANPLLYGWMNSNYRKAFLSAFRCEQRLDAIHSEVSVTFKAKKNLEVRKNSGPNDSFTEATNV
Method: EM density map11, the coordinates were subsequently manual adjustment and rebuilding in COOT 12. Real space refinement was performed in Phenix program 13.
The model statistics were finally validated by using MolProbity 14 in Phenix. The refinement statistics are presented in supplemental information table S1. UCSF Chimera11, Chimera X 15 and PyMOL (https://pymol.org/2/) were used to generate the […]
Cyclic adenosine 3′,5′-monophosphate (cAMP) assay.
To measure the ligand-induced Gi signaling activation potency of wild -type NPYR or mutants, the GloSensor cAMP assay (Promega) was conducted following a previous study. Briefly, HEK293 cells were co -transfected with the GloSensor plasmid and various NPYR constructs or pcDNA3.1 (as a negative control) plasmids using Polyethylenimine Linear (PEI, YEASEN) in 6 -well plates. Following a 4-hour incubation period, the cells were transferred to fresh medium. After 24 hours, they were harvested and suspended in assay buffer ( HBSS with 10 mM HEPES, pH 7.4), supplemented with a 3% v/v dilution of D -Luciferin-Potassium Salt (YEASEN).
Following a subsequent 1 -hour incubation, ligands, diluted in assay buffer with forskolin, were introduced to the cells. Subsequently, the cells wer e incubated for 30 minutes in a light-free environment at room temperature […] signals were measured using a Synergy H1 microplate reader (BioTek). […]

Substance: NPY^3−36: N-terminal truncated NPY variant, processed by dipeptidyl peptidase IV
- reduced Y1R activation compared to NPY [1]: > 50 folds
- Y2R activation compared with NPY (in words) (wildtype Y2R): slightly reduced Y2R activation

Substance: NPY^13−36: N-terminally truncated NPY
- reduced Y1R activation compared to NPY [1]: > 50 folds
